Laboratory results taken from paper PMC8402609 (Vaccines, 2021).

What was measured:
Assay in all cases: SPR
Conditions in all cases: both partners purified
[1] = target: T1, 8-residue peptide 3D7-MSP2(215-222), minimal 4D11 epitope (Plasmodium falciparum 3D7)
T1 construct: source: synthetic peptide
T1 chain: NKENCGAA

[2] = target: T2, 3D7-MSP2(207-222) (WT) 16-residue peptide (Plasmodium falciparum 3D7)
T2 construct: source: synthetic peptide (Fmoc solid phase, in-house, reverse-phase purified)
T2 chain: SQKECTDGNKENCGAA

[3] = target: T3, 3D7 merozoite surface protein 2 (MSP2) (Plasmodium falciparum 3D7, UniProt P50498)
T3 construct: also called 3D7 MSP2; 3D7-MSP2
T3 sequence (P50498 21-246): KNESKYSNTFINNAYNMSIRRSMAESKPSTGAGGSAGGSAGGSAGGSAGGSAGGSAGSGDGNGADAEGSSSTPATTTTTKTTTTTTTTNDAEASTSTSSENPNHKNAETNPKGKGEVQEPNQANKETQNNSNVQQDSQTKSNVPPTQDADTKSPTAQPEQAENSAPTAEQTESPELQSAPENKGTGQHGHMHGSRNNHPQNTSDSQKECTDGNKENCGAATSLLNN

B1: mouse monoclonal antibody 4D11 IgG (antibody, V domains shown)
VH: QVRLQQSGAELVKPGASVKLSCTASGFNIKDDYMHWVKQRPEQGLEWIGRIDPANGNTQYAPKFQDKATITADTSSNTAYLQLTSLTSEDTAVYYCARGGLLRWGQGTSVTVSS
VL: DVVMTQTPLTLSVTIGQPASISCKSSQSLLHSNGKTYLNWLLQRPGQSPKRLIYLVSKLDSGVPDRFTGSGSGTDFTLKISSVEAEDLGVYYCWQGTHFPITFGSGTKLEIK
Kd [1]: 240 nM | Kd [2]: 900 nM | binding result [3]: binds
